Assay results taken from article PMC9943675, “Depletion of the RNA-binding protein PURA triggers changes in posttranscriptional gene regulation and loss of P-bodies”.

T1: PURA (Pur-alpha) (Homo sapiens, UniProt Q00577 1-322)
T1 sequence: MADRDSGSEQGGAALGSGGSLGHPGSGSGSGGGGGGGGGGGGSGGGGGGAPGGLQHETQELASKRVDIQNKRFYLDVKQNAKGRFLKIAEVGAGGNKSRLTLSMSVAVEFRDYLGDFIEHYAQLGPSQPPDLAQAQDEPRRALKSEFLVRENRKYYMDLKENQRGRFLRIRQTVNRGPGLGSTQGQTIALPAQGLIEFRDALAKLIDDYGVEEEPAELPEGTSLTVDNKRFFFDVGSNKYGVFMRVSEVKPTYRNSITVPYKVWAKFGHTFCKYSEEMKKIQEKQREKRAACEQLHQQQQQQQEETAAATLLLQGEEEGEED

B1: CLTC (ssRNA)
RNA: GUCUUGUGUGUGUUUACUAACCCUUCCCUGAGGUUUGUGUAUGUUGGAUAUUGUGGUGUUUUAG
B2: CLTA (ssRNA)
RNA: GUUGUUUGUGAUUGCAUGUUUCCUUCCUUCAACUGUGUUCUCCCUGGCAUU

Target: T1, PURA (Pur-alpha)
Test: EMSA; 100 ug/ml yeast tRNA; 250 mM NaCl, 20 mM HEPES pH 8.0, 3 mM MgCl2, 4% glycerol, 2 mM DTT, 100 ug/ml yeast tRNA, 2.5 nM RNA, 20 min RT; 6% TBE gel
Conditions: protein: recombinant; tags: GST-PURA (pOPIN-J); GST removed with 3C protease; chain copies: 2; label: 5' 32P

Row | Binder | binding result
1 | B1 | binds
2 | B2 | binds
